T1: FLT3 on Nalm16 cells (human, UniProt P36888 27-993)
T1 construct: whole, on cells; Endogenous FLT3 of the NALM16 leukemia cell line; also called NALM16 (FLT3+); NALM-16 cells expressing FLT3
T1 sequence (looked up): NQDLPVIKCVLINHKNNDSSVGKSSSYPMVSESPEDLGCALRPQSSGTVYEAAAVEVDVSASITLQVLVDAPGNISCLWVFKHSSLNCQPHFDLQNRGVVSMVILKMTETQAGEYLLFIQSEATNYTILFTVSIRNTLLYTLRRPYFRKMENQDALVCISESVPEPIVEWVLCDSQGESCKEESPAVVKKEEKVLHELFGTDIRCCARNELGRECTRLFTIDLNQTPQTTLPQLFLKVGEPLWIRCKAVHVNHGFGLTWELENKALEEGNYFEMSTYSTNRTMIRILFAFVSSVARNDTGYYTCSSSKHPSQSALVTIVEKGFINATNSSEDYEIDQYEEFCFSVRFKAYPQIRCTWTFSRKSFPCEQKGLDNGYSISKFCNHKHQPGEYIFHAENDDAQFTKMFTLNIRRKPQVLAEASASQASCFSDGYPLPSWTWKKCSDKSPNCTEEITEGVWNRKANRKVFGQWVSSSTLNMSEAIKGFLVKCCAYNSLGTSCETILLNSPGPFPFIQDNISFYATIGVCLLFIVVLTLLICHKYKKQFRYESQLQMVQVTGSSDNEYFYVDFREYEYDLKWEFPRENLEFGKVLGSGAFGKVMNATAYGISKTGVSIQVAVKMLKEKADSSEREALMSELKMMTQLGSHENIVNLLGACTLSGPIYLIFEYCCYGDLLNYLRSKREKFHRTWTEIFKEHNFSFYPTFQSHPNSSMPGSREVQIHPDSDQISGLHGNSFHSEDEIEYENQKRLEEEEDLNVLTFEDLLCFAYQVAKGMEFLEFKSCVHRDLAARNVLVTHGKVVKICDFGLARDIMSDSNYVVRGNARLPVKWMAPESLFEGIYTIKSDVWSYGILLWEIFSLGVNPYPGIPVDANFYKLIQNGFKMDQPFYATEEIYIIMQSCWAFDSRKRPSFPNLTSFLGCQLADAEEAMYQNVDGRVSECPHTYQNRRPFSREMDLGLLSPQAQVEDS

T2: His tagged, recombinant FLT3 protein (Sino Biologicals) (human, UniProt P36888 27-541, limits assumed)
T2 construct: Bought protein; also called soluble recombinant FLT3 protein; not shown: His tag
T2 sequence (looked up): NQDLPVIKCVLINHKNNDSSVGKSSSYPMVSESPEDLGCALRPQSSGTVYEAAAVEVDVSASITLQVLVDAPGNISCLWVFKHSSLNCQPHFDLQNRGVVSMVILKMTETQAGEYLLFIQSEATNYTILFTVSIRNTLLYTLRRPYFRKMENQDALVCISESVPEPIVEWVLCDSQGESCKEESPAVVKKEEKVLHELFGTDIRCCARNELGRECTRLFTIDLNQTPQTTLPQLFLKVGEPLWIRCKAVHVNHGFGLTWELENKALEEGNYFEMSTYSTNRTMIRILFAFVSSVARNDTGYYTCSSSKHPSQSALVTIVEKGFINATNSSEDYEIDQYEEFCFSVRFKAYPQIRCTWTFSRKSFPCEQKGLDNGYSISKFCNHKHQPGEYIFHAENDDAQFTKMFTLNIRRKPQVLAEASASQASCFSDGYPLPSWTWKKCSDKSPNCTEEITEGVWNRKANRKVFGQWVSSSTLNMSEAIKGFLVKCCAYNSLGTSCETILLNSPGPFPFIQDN

B1: bispecific FLT3xCD3 IgGsc antibody V2-V6 (CC-2 variant 2) (bispecific antibody)
heavy: QVQLVQSGAEVKKPGGSLRLSCAASGYTFTSYWMHWVRQAPGQGLEWIGEIDPSDSYTDYAQKFKDRVTISRDTSKNTLYLQLSSLRAEDTAVYYCARAITTTPFDFWGQGTLVTVSSASTKGPSVFPLAPSSKSTSGGTAALGCLVKDYFPEPVTVSWNSGALTSGVHTFPAVLQSSGLYSLSSVVTVPSSSLGTQTYICNVNHKPSNTKVDKKVEPKSCDKTHTCPPCPAPPVAGPSVFLFPPKPKDTLMISRTPEVTCVVVGVSHEDPEVKFNWYVDGVEVHNAKTKPREEQYNSTYRVVSVLTVLHQDWLNGKEYKCKVSNKQLPSPIEKTISKAKGQPREPQVYTLPPSRDELTKNQVSLTCLVKGFYPSDIAVEWESNGQPENNYKTTPPVLDSDGSFFLYSKLTVDKSRWQQGNVFSCSVMHEALHNHYTQKSLSLSPGKSGDIQMTQSPSSLSASVGDRVTITCRASQDIRNYLNWYQQKPGKAPKLLIYYTSRLESGVPSRFSGSGSGTDYTLTISSLQPEDFATYYCQQGNTLPWTFGQGTKVEIKGGGGSGGGGSGGGGSEVQLVESGGGLVQPGGSLRLSCAASGYSFTGYTMNWVRQAPGKGLEWVALINPYKGVSTYNQKFKDRFTISVDKSKNTAYLQMNSLRAEDTAVYYCARSGYYGDSDWYFDVWGQGTLVTVSS
light: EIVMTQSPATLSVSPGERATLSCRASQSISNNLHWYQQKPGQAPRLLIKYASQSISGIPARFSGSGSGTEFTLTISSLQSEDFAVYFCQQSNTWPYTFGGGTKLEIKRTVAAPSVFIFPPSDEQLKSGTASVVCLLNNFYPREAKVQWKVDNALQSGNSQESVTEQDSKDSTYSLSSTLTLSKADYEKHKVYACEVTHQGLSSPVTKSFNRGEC
notes: Fc-attenuated IgGsc format; also called Version 2; CC-2 V2
B2: bispecific FLT3xCD3 IgGsc antibody V1-V6 (CC-2 variant 1) (bispecific antibody)
heavy: B1 heavy
light: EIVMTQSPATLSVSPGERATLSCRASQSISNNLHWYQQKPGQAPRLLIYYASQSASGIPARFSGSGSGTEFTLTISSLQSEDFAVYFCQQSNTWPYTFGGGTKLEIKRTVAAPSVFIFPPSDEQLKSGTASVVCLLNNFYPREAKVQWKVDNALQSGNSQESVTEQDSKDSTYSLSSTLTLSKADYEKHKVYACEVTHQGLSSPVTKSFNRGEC
notes: Fc-attenuated IgGsc format: VH-CH1-CH2mod-CH3-scFv(UCHT1 V6) heavy chain and VL-CL light chain; also called Version 1; CC-2 V1
B3: bispecific FLT3xCD3 IgGsc antibody V5-V6 (CC-2 variant 5) (bispecific antibody)
heavy: B1 heavy with T58K, A61N
light: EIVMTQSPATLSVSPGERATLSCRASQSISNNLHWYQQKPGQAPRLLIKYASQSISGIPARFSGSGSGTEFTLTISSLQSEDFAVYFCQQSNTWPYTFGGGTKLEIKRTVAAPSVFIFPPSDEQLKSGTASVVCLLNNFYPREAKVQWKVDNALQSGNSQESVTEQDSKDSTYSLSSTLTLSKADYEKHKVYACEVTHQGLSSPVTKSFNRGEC
notes: Fc-attenuated IgGsc format; also called Version 5; CC-2 V5
B4: bispecific FLT3xCD3 IgGsc antibody V3-V6 (CC-2 variant 3) (bispecific antibody)
heavy: QVQLVQSGAEVKKPGASVKVSCKASGYTFTSYWMHWVRQAPGQGLEWIGEIDPSDSYKDYNQKFKDRVTMTRDTSTSTVYMELSSLRSEDTAVYYCARAITTTPFDFWGQGTTVTVSSASTKGPSVFPLAPSSKSTSGGTAALGCLVKDYFPEPVTVSWNSGALTSGVHTFPAVLQSSGLYSLSSVVTVPSSSLGTQTYICNVNHKPSNTKVDKKVEPKSCDKTHTCPPCPAPPVAGPSVFLFPPKPKDTLMISRTPEVTCVVVGVSHEDPEVKFNWYVDGVEVHNAKTKPREEQYNSTYRVVSVLTVLHQDWLNGKEYKCKVSNKQLPSPIEKTISKAKGQPREPQVYTLPPSRDELTKNQVSLTCLVKGFYPSDIAVEWESNGQPENNYKTTPPVLDSDGSFFLYSKLTVDKSRWQQGNVFSCSVMHEALHNHYTQKSLSLSPGKSGDIQMTQSPSSLSASVGDRVTITCRASQDIRNYLNWYQQKPGKAPKLLIYYTSRLESGVPSRFSGSGSGTDYTLTISSLQPEDFATYYCQQGNTLPWTFGQGTKVEIKGGGGSGGGGSGGGGSEVQLVESGGGLVQPGGSLRLSCAASGYSFTGYTMNWVRQAPGKGLEWVALINPYKGVSTYNQKFKDRFTISVDKSKNTAYLQMNSLRAEDTAVYYCARSGYYGDSDWYFDVWGQGTLVTVSS
light: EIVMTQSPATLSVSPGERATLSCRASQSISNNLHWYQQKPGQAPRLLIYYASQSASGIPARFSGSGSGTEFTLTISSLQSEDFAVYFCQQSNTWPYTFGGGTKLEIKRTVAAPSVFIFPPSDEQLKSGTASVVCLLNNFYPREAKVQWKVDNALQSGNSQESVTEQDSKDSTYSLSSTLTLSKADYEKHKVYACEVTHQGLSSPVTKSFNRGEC
notes: Fc-attenuated IgGsc format; also called Version 3; CC-2 V3
B5: bispecific FLT3xCD3 IgGsc antibody V4-V6 (CC-2 variant 4) (bispecific antibody)
heavy: B4 heavy
light: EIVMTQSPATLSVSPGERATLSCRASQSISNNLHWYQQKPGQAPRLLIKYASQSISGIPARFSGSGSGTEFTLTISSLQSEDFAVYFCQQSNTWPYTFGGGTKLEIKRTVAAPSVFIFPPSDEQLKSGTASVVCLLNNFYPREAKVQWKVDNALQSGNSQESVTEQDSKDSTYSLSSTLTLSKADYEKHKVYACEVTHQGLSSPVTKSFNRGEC
notes: Fc-attenuated IgGsc format; also called Version 4; CC-2 V4
B6: bispecific FLT3xCD3 IgGsc antibody V6-V8 (bispecific antibody)
heavy: QVQLQQPGAELVKPGASLKLSCKSSGYTFTSYWMHWVRQRPGHGLEWIGEIDPSDSYKDYNQKFKDKATLTVDRSSNTAYMHLSSLTSDDSAVYYCARAITTTPFDFWGQGTTLTVSSASTKGPSVFPLAPSSKSTSGGTAALGCLVKDYFPEPVTVSWNSGALTSGVHTFPAVLQSSGLYSLSSVVTVPSSSLGTQTYICNVNHKPSNTKVDKKVEPKSCDKTHTCPPCPAPPVAGPSVFLFPPKPKDTLMISRTPEVTCVVVGVSHEDPEVKFNWYVDGVEVHNAKTKPREEQYNSTYRVVSVLTVLHQDWLNGKEYKCKVSNKQLPSPIEKTISKAKGQPREPQVYTLPPSRDELTKNQVSLTCLVKGFYPSDIAVEWESNGQPENNYKTTPPVLDSDGSFFLYSKLTVDKSRWQQGNVFSCSVMHEALHNHYTQKSLSLSPGKSGDIQMTQSPSSLSASVGDRVTITCRASQDIRNYLNWYQQKPGKAPKLLIYYTSRLESGVPSRFSGSGSGTDYTLTISSLQPEDFATYYCQQGNTLPWTFGQGTKVEIKGGGGSGGGGSGGGGSEVQLVESGGGLVQPGGSLRLSCAASGYSFTGYTMNWVRQAPGKGLEWVALINPYKGVSTYNQKFKDRFTISVDDSKNTAYLQMNSLRAEDTAVYYCARSGYYGDSDWYFDVWGQGTLVTVSS
light: DIVLTQSPATLSVTPGDSVSLSCRASQSISNNLHWYQQKSHESPRLLIKYASQSISGIPSRFSGSGSGTDFTLSINSVETEDFGVYFCQQSNTWPYTFGGGTKLEIKRTVAAPSVFIFPPSDEQLKSGTASVVCLLNNFYPREAKVQWKVDNALQSGNSQESVTEQDSKDSTYSLSSTLTLSKADYEKHKVYACEVTHQGLSSPVTKSFNRGEC
notes: Fc-attenuated IgGsc format; also called CC-2 V8
B7: bispecific FLT3xCD3 IgGsc antibody V6-V7 (bispecific antibody)
heavy: B6 heavy with N632A, Q633D, K634S, D637G
light: B6 light
notes: Fc-attenuated IgGsc format; also called CC-2 V7

Residue numbers refer to the chain shown, from its start.

For the first test, the target named is T1, FLT3 on Nalm16 cells. The test is described as follows: flow cytometry (row 'EC50, FACS binding' under the bars; binding to NALM16 cells of FIG. 4). Here is the method:
(§1) In addition, antibody binding affinity was also tested using binding of the antibody to its target(s) as expressed on cells. Analyzed is the binding of CC-2 variants to Nalm16 cells expressing FLT3 (FIG. 4) or Jurkat cells expressing CD3 (FIG. 6). Variants V1 to V9 (with V6 being V6-V6) were produced after transient transfection of CHO cells using the insert sequences listed above. The antibodies were purified by protein A affinity- and size exclusion-chromatography. […] To measure antibody binding to FLT3 and CD3 NALM16 (FLT3+) and Jurkat (CD3+) cells were incubated with the respective variants for 30 min, washed, stained with a goat anti human Fcγ-specific and PE-conjugated secondary antibody (Jackson Immuno Research), washed again and analyzed by flow cytometry (FACSCalibur, BD Biosciences).
For orientation: In flow cytometry, cells or beads pass a laser one at a time.
Broadly, the EC50 is the concentration at which the effect is half-maximal. A higher EC50 goes with weaker potency. The molecule B1 came in with an EC50 of 10 nM.

B2 displayed an EC50 above 10 nM.

On to B3, for which the EC50 is 1.3 nM.

B4 registered an EC50 of 8 nM.

As to B5, it took 5 nM to reach a half-maximal effect (EC50). This EC50 is about 1.6-fold lower than that of the molecule before.

For a further test, the target named is T3, CD3 on Jurkat cells (human, UniProt P07766 23-207).
T3 construct: whole, on cells; also called Jurkat (CD3+); human cluster of differentiation 3 (CD3) antigen
T3 sequence (P07766 23-207): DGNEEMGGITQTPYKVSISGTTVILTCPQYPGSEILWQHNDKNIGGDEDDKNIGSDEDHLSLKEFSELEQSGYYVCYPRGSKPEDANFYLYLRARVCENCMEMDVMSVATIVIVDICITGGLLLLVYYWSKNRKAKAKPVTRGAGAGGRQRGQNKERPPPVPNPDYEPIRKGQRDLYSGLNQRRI
The experiment in a line: flow cytometry (value under the bar; by the legend the EC50 of the binding to Jurkat cells of FIG. 6). Here is the method:
as §1
B6 registered an EC50 of 92 nM.

Consider B7, for which it took 496 nM to reach a half-maximal effect (EC50).

The next test concerns the target T1, FLT3 on Nalm16 cells. The test is described as follows: flow cytometry on NALM16 cells (FLT3+), 30 min incubation, PE-conjugated goat anti-human Fc-gamma secondary antibody. Here is the method: as §1
As a reminder, the EC50 (read off the curve) is the concentration giving half of the maximal effect. A higher EC50 (read off the curve) goes with weaker potency. For the molecule B3, the “EC50 (read off the curve)” value is around 1 nM.

B4: the “EC50 (read off the curve)” value was around 8 nM.

As for B5, the “EC50 (read off the curve)” value is around 5 nM.

The target in the next test is T2, His tagged, recombinant FLT3 protein …. The experiment in a line: SPR (Biacore X); antibody captured on protein A chip, His-tagged recombinant FLT3 in solution. Here is the method: FIG. 3 depicts binding of different CC-2 variants to soluble recombinant FLT3 protein. Respective antibody variants were immobilized to a Biacore chip coated with protein A and binding of His tagged, recombinant FLT3 protein (Sino Biologicals) was determined using a Biacore X instrument (GE Healthcare). Shown are the results of various mutated variants of the FLT3 antigen binding domain (V1 to V5).
In FIG. 3 the binding of different FLT3 binding domain variants V1 to V5 as indicated above was tested for their dissociation constant using a soluble recombinant FLT3 protein. Respective antibody variants were immobilized to a Biacore chip coated with protein A and binding of His tagged, recombinant FLT3 protein (Sino Biologicals) was determined using a Biacore X instrument (GE Healthcare).
Usually Kd stands for the equilibrium constant for the complex coming apart. As a reminder, the koff is the first-order rate constant of dissociation. For orientation: kon means the second-order rate constant of association. On to B1, for which the Kd is 88000 nM, the koff turned out to be 0.0318 s⁻¹ and the kon was 540 M⁻¹ s⁻¹.

As for B2, the Kd turned out to be 63000 nM, the koff amounted to 0.022 s⁻¹ and the kon stood at 489 M⁻¹ s⁻¹.

For the molecule B3, the Kd was found to be 160 nM, the koff was 0.00449 s⁻¹ and the kon worked out at 29600 M⁻¹ s⁻¹.

Turning to B4, the Kd was 87000 nM, the koff is 0.0233 s⁻¹ and the kon came to 276 M⁻¹ s⁻¹.

For B5, the Kd turned out to be 480 nM, the koff is 0.00887 s⁻¹ and the kon stood at 18800 M⁻¹ s⁻¹.

Values taken from patent US20220056141A1 (DEUTSCHES KREBSFORSCHUNGSZENTRUM STIFTUNG DES OFFENTLICHEN …, published 2022).
